From patent US20060073508A1 (published 2006)

Target: GRK2 (βARK1)
Test: cell-based or functional assay

B1: hemagglutinin epitope-tagged wild-type human alpha-2B adrenergic receptor (receptor)
chain: YPYDVPDYAMDHQDPYSVQATAAIAAAITFLILFTIFGNALVILAVLTSRSLRAPQNLFLVSLAAADILVATLIIPFSLANELLGYWYFRRTWCEVYLALDVLFCTSSIVHLCAISLDRYWAVSRALEYNSKRTPRRIKCIILTVWLIAAVISLPPLIYKGDQGPQPRGRPQCKLNQEAWYILASSIGSFFAPCLIMILVYLRIYLIAKRSNRRGPRAKGGPGQGESKQPRPDHGGALASAKLPALASVASAREVNGHSKSTGEKEEGETPEDTGTRALPPSWAALPNSGQGQKEGVCGASPEDEAEEEEEEEEEEEECEPQAVPVSPASACSPPLQQPQGSRVLATLRGQVLLGRGVGAIGGQWWRRRAQLTREKRFTFVLAVVIGVFVLCWFPFFFSYSLGAICPKHCKVPHGLFQFFFWIGYCNSSLNPVIYTIFNQDFRRAFRRILCRPWTQTAW
agonist-promoted whole cell phosphorylation of the receptor (10 µM norepinephrine): 5.84 fold increase
